Experiments:
Test in all cases: flow cytometry, alanine-scan library in HEK-293T, with cytochalasin B
[1] = target: T1, hsGLUT4 E315A (human, UniProt P14672 1-509)
T1 sequence: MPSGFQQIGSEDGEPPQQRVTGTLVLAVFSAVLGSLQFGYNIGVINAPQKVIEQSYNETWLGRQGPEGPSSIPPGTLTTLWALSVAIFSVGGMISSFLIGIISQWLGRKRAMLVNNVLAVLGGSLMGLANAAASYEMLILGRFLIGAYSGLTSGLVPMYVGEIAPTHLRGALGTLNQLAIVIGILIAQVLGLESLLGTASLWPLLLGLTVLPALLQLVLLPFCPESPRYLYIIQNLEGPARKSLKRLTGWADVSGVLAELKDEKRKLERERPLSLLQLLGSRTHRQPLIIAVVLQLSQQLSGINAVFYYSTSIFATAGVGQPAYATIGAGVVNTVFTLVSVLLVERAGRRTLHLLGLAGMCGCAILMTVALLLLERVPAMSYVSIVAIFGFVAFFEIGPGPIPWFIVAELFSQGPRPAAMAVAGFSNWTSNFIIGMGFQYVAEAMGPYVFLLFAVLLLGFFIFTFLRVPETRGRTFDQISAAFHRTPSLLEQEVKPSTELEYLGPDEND
Summary of the method: (§1)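 HEK-293T cells expressing individual GLUT4 alanine mutants were stained 48 h post-transfection with anti-GLUT4 scFv MAbs (2 μg/ml), then biotinylated secondary and streptavidin-PerCP, and read by high-throughput flow cytometry. Where used, cytochalasin B (10 uM final) was given for 30 min before and during primary antibody staining.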

[2] = target: T2, hsGLUT4 Q298A (human, UniProt P14672 1-509)
T2 sequence: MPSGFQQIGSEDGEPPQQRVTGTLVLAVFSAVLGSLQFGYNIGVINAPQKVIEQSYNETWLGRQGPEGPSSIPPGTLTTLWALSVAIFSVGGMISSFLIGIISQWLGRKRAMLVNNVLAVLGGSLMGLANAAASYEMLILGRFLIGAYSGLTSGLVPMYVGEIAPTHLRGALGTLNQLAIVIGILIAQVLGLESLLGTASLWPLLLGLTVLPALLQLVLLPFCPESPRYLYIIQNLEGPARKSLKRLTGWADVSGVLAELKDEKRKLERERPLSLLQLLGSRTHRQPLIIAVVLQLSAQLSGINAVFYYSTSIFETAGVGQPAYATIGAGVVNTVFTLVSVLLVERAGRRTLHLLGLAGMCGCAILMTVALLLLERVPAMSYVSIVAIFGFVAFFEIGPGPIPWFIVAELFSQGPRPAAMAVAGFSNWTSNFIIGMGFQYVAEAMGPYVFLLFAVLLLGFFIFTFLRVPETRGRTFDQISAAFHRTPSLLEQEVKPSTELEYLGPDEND
Summary of the method: as §1

[3] = target: T3, hsGLUT4 L155A (human, UniProt P14672 1-509)
T3 sequence: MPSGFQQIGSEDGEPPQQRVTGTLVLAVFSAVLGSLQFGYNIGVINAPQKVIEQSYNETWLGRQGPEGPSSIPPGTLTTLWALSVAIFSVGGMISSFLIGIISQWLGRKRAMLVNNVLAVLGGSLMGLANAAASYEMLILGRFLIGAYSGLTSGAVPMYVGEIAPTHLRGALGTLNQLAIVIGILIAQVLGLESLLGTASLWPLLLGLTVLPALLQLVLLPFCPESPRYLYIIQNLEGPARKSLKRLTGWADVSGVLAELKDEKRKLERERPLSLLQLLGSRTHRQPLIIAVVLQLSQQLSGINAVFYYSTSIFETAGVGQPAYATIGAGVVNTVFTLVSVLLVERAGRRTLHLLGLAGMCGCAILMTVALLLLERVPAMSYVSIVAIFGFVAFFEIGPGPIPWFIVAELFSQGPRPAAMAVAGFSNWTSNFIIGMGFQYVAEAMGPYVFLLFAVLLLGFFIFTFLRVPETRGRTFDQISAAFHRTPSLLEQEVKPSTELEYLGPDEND
Summary of the method: as §1

[4] = target: T4, hsGLUT4 L61A (human, UniProt P14672 1-509)
T4 sequence: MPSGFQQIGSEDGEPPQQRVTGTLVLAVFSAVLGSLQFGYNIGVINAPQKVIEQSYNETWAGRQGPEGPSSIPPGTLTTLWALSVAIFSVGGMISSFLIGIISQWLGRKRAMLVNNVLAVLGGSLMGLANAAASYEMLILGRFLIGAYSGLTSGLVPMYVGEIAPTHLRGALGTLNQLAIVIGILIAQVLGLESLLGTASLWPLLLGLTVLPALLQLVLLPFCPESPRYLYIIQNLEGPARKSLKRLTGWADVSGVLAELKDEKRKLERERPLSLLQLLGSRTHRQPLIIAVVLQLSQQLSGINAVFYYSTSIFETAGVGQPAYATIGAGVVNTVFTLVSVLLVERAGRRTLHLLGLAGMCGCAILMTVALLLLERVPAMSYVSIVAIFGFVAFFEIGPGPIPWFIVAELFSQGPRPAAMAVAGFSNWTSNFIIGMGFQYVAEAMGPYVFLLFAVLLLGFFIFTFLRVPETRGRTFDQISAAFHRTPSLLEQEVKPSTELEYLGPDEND
Summary of the method: as §1

% of binding to wild type GLUT4 [1]: 76%
% of binding to wild type GLUT4 [2]: 107%
% of binding to wild type GLUT4 [3]: 26%
% of binding to wild type GLUT4 [4]: 69%
B1: AB102 (Fc fusion)
scFv: ALTQPSSVSANLGGTVKITCSGGGSYGYGWYQQKSPGSAPVTVIYSNDQRPSDIPSRFSGSKSGSTATLTITGVRAEDEAIYYCGSTDSDYVGIFGAGTTLTVLGQSSRSSGGGGSSGGGGSAVTLDESGGGLQTPGGTLSLVCKASGFDFSSYATIWVRQAPGKGLEWVAGISGTGTGSSTGYAPAVKGRATISRDNGQSTVRLQLNNLRAEDTGSYFCAKSTGYGDSWIYPDSIDAWGHGTEVIVSS
notes: also called MAb AB102; not shown: Fc fragment of human IgG1, cloned in frame with the scFv
